Reference: article PMC12572195 (Nature Communications, 2025)

Target: SPT6 (human, UniProt Q7KZ85 1-1726)
Assay: cell-based or functional assay

- co-transcriptional methylation assay (3H activity) with SETD2 Construct 4 (includes the complete SBR, lacks the SRI domain): ~50 % of WT
B1: SETD2 (residues 1446-2564) (domain or fragment)
chain: GPSCVMDDFRDPQRWKECAKQGKMPCYFDLIEENVYLTERKKNKSHRDIKRMQCECTPLSKDERAQGEIACGEDCLNRLLMIECSSRCPNGDYCSNRRFQRKQHADVEVILTEKKGWGLRAAKDLPSNTFVLEYCGEVLDHKEFKARVKEYARNKNIHYYFMALKNDEIIDATQKGNCSRFMNHSCEPNCETQKWTVNGQLRVGFFTTKLVPSGSELTFDYQFQRYGKEAQKCFCGSANCRGYLGGENRVSIRAAGGKMKKERSRKKDSVDGELEALMENGEGLSDKNQVLSLSRLMVRIETLEQKLTCLELIQNTHSQSCLKSFLERHGLSLLWIWMAELGDGRESNQKLQEEIIKTLEHLPIPTKNMLEESKVLPIIQRWSQTKTAVPPLSEGDGYSSENTSRAHTPLNTPDPSTKLSTEADTDTPKKLMFRRLKIISENSMDSAISDATSELEGKDGKEDLDQLENVPVEEEEELQSQQLLPQQLPECKVDSETNIEASKLPTSEPEADAEIEPKESNGTKLEEPINEETPSQDEEEGVSDVESERSQEQPDKTVDISDLATKLLDSWKDLKEVYRIPKKSQTEKENTTTERGRDAVGFRDQTPAPKTPNRSRERDPDKQTQNKEKRKRRSSLSPPSSAYERGTKRPDDRYDTPTSKKKVRIKDRNKLSTEERRKLFEQEVAQREAQKQQQQMQNLGMTSPLPYDSLGYNAPHHPFAGYPPGYPMQAYVDPSNPNAGKVLLPTPSMDPVCSPAPYDHAQPLVGHSTEPLSAPPPVPVVPHVAAPVEVSSSQYVAQSDGVVHQDSSVAVLPVPAPGPVQGQNYSVWDSNQQSVSVQQQYSPAQSQATIYYQGQTCPTVYGVTSPYSQTTPPIVQSYAQPSLQYIQGQQIFTAHPQGVVVQPAAAVTTIVAPGQPQPLQPSEMVVTNNLLDLPPPSPPKPKTIVLPPNWKTARDPEGKIYYYHVITRQTQWDPPTWESPGDDASLEHEAEMDLGTPTYDENPMKASKKPKTAEADTSSELAKKSKEVFRKEMSQFIVQCLNPYRKPDCKVGRITTTEDFKHLARKLTHGVMNKELKYCKNPEDLECNENVKHKTKEYIKKYMQKFGAVYKPKEDTELE
